Test results from US20160046675A1 (US Dept. of Health and Human Services, published 2016).

Molecular target: RSV F glycoprotein on RSV-infected HEp-2 cells and on RSV virions (respiratory syncytial virus; strain not …, UniProt P03420 26-109; P03420 137-574)
Assay: cell-based or functional assay

Sequence of RSV F glycoprotein on RSV-infected HEp-2 cells and on RSV virions (P03420 26-109, chain 1 of 2): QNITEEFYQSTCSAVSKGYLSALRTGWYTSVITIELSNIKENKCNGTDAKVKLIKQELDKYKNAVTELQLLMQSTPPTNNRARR
Sequence of RSV F glycoprotein on RSV-infected HEp-2 cells and on RSV virions (P03420 137-574, chain 2 of 2): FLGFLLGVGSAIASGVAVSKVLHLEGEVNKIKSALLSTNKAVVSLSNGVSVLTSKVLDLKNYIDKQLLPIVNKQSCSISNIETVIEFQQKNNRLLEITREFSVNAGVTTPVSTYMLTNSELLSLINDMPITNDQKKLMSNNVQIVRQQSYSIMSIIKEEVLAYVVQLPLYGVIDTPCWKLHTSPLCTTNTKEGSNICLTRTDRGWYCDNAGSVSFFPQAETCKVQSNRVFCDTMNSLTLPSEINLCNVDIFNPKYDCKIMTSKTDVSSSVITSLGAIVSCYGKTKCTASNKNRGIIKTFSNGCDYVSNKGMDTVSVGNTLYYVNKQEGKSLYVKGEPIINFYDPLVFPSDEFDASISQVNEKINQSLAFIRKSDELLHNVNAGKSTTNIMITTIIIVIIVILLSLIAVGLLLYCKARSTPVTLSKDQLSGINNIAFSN

B1: AM22 monoclonal antibody (antibody, V domains shown)
VH: QVQLVQSGAEVKKPGATVKVSCKISGHTLIKLSIHWVRQAPGKGLEWMGGYEGEVDEIFYAQKFQHRLTVIADTATDTVYMELGRLTSDDTAVYFCGTLGVTVTEAGLGIDDYWGQGTLVTVSS
VL: EIVLTQSPGTLSLSPGERATLSCRASQIVSRNHLAWYQQKPGQAPRLLIFGASSRATGIPVRFSGSGSGTDFTLTINGLAPEDFAVYYCLSSDSSIFTFGPGTKVDFKR
In the case of B1, the “RSV neutralization (flow cytometry, RSV-GFP on HEp-2 cells)” value is reported as ~50 fold (potency relative to palivizumab).
